We go through six molecules from paper PMC3032553, “Structural Basis for c-di-GMP-Mediated Inside-Out Signaling Controlling Periplasmic Proteolysis” (PLoS Biology, 2011).

The target of one data set is T1, LapD^EAL (Pseudomonas fluorescens, UniProt Q3KK31, A602E).
T1 construct: isolated degenerate EAL domain, residues 399-648; purified; dimer with c-di-GMP
T1 sequence (Q3KK31 399-648 A602E): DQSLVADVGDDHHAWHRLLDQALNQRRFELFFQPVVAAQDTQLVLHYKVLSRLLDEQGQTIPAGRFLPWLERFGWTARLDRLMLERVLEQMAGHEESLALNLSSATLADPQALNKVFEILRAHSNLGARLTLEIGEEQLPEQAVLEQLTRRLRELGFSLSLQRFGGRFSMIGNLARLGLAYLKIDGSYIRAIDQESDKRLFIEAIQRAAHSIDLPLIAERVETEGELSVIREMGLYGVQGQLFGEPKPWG
The data set can be described thus: radioligand filter binding, one-site fit. The conditions noted are these: read-out: Apparent K d. The text has this:
radioligand filter binding, one-site fit on LapD^EAL

In data set [1] the target is T2, LapD^dual (Pseudomonas fluorescens, UniProt Q3KK31).
T2 construct: cytoplasmic S helix-GGDEF-EAL dual domain module, residues 220-648, lacks HAMP; purified; apo monomer, dimerizes with c-di-GMP
T2 sequence (Q3KK31 220-648): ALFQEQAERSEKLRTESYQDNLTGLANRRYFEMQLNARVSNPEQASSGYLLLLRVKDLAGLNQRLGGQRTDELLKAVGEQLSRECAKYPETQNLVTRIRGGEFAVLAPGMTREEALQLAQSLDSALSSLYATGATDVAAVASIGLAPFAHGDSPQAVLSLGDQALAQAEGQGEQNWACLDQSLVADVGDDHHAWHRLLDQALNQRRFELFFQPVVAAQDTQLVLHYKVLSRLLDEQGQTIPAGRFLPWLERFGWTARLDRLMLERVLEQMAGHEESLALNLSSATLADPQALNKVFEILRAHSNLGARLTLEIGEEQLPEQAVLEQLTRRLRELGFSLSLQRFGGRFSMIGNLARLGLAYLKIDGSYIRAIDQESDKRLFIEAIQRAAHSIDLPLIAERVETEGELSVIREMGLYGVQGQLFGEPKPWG
The data set can be described thus: radioligand filter binding, one-site fit. The settings on record: read-out: Apparent K d. From the text: (§1) radioligand filter binding, one-site fit on LapD^dual

Data set [2] deals with T3, LapD^dual (Pseudomonas fluorescens, UniProt Q3KK31, A602E).
T3 construct: cytoplasmic S helix-GGDEF-EAL dual domain module, residues 220-648, lacks HAMP; purified; apo monomer, dimerizes with c-di-GMP
T3 sequence (Q3KK31 220-648 A602E): T2 sequence (Q3KK31 220-648)
The data set can be described thus: radioligand filter binding, one-site fit. The settings on record: read-out: Apparent K d.
Source text: as §1

Data set [3] concerns the target T4, LapD^dual (Pseudomonas fluorescens, UniProt Q3KK31, A602E/S229D).
T4 construct: cytoplasmic S helix-GGDEF-EAL dual domain module, residues 220-648, lacks HAMP; purified; apo monomer, dimerizes with c-di-GMP
T4 sequence (Q3KK31 220-648 S229D/A602E): T2 sequence (Q3KK31 220-648)
The data set is described as follows: radioligand filter binding, one-site fit. The conditions noted are these: read-out: Apparent K d.
Source text: as §1

For data set [4], the target named is T5, LapD^dual (Pseudomonas fluorescens, UniProt Q3KK31, E262A).
T5 construct: cytoplasmic S helix-GGDEF-EAL dual domain module, residues 220-648, lacks HAMP; purified; apo monomer, dimerizes with c-di-GMP
T5 sequence (Q3KK31 220-648 E262A): T2 sequence (Q3KK31 220-648)
The data set is described as follows: radioligand filter binding, one-site fit. The settings on record: read-out: Apparent K d.
Source text: as §1

Data set [5] concerns the target T6, LapD^dual (Pseudomonas fluorescens, UniProt Q3KK31, S229D).
T6 construct: cytoplasmic S helix-GGDEF-EAL dual domain module, residues 220-648, lacks HAMP; purified; apo monomer, dimerizes with c-di-GMP
T6 sequence (Q3KK31 220-648 S229D): T2 sequence (Q3KK31 220-648)
The data set can be described thus: radioligand filter binding, one-site fit. The conditions noted are these: read-out: Apparent K d.
Source text: as §1

Data set [6] deals with the molecule itself. The data set is described as follows: SEC-MALS; protein incubated with 500 µM c-di-GMP for 30 min at room temperature before SEC, no c-di-GMP in the mobile phase; 20-320 µM injected protein; 25 mM Tris-HCl pH 8.4, 250 mM NaCl; 25°C. On the technique in general: SEC sorts molecules by how far they enter the pores of the column.
Data set [7] deals with the molecule itself. The data set can be described thus: AUC; sedimentation equilibrium, no c-di-GMP; 1x, 2x, 4x dilutions of ~12 µM protein; 25 mM Tris pH 7.5, 150 mM NaCl; 20°C; 10,000, 14,000 and 20,000 rpm, global fit; monomer:dimer equilibrium.
Data set [8] concerns the molecule itself. The data set is described as follows: AUC; sedimentation equilibrium with 20 µM c-di-GMP; 1x, 2x, 4x dilutions of ~12 µM protein; 25 mM Tris pH 7.5, 150 mM NaCl; 20°C; global fit with dinucleotide binding and dimerization of the c-di-GMP-bound form; monomer:dimer equilibrium.
Data set [9] deals with the molecule itself. The data set can be described thus: crystal structure; LapD^output, selenomethionine-derivatized, 1.8 Å, two molecules per asymmetric unit.
The next data set concerns the target T7, His6-tagged LapG (P. fluorescens).
T7 chain: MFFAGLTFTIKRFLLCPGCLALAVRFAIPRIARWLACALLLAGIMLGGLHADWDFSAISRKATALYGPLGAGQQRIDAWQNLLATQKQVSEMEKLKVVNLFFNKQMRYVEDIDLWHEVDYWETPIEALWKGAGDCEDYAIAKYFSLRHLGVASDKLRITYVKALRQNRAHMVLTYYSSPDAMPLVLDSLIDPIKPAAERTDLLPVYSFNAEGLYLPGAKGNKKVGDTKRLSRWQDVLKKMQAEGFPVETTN
The data set can be described thus: pull-down; His6-LapG bound to NiNTA resin, untagged LapD output domain variants added, 1 h at 4°C; 25 mM Tris-HCl pH 8.4, 75 mM NaCl, 25 mM KCl, 40 mM imidazole; eluates on SDS-PAGE (Coomassie; SYPRO Ruby for quantification). The conditions noted are these: both partners purified.

Residue numbers refer to the chain shown, from its start. In names and notes the source's numbering stands. Some results are limits rather than exact numbers.

Turning to `Nc1nc2c(ncn2[C@@H]2O[C@@H]3CO[P@](=O)(O)O[C@H]4[C@@H](O)[C@H](n5cnc6c(=O)[nH]c(N)nc65)O[C@@H]4CO[P@](=O)(O)O[C@H]3[C@H]2O)c(=O)[nH]1` [c-di-GMP], the Kd at LapD^EAL was 36.3 ± 5.4 µM; on LapD^dual [1], 27 ± 4.7 µM; on LapD^dual [2] it was > 1000 µM; on LapD^dual [3], > 1000 µM; at LapD^dual [4], 15.3 ± 1.7 µM; on LapD^dual [5], 15.1 ± 1.8 µM.

B1: LapD^EAL, wild-type (EAL domain of LapD, residues 399-648) (domain or fragment, P. fluorescens Pf0-1, UniProt Q3KK31 399-648, looked up)
chain: T1 sequence (Q3KK31 399-648 A602E)
notes: LapD, P. fluorescens Pf0-1, residues 399-648 (degenerate EAL domain); also called isolated EAL domain; LapD^EAL•c-di-GMP; source: produced following standard molecular biology and liquid chromatography techniques, purified (protocols in Text S1)
For B1, the binding result in data set [6] was “binds”.

B2: LapD^dual S229D (domain or fragment, P. fluorescens Pf0-1, UniProt Q3KK31 220-648, looked up)
chain: T2 sequence (Q3KK31 220-648) with S10D
notes: LapD, P. fluorescens Pf0-1, residues 220-648, mutation S229D in the S helix; also called S helix-EAL interface mutant; source: produced following standard molecular biology and liquid chromatography techniques, purified (protocols in Text S1)
B2: the Kd in data set [7] was 420 µM; in data set [8], 0.18 µM.

B3: LapD^dual E262A (domain or fragment, P. fluorescens Pf0-1, UniProt Q3KK31 220-648, looked up)
chain: T2 sequence (Q3KK31 220-648) with E43A
notes: LapD, P. fluorescens Pf0-1, residues 220-648, mutation E262A in the GGDEF domain; also called GGDEF-EAL interface mutant; source: produced following standard molecular biology and liquid chromatography techniques, purified (protocols in Text S1)
As for B3, the binding result in data set [6] is listed as “binds”.

B4: LapD^dual, wild-type (dual GGDEF-EAL domain module of LapD, residues 220-648) (domain or fragment, P. fluorescens Pf0-1, UniProt Q3KK31 220-648, looked up)
chain: T2 sequence (Q3KK31 220-648)
notes: LapD, P. fluorescens Pf0-1, residues 220-648 (S helix, degenerate GGDEF and EAL domains); also called apo-LapD^dual; intracellular module of LapD; source: produced following standard molecular biology and liquid chromatography techniques, purified (protocols in Text S1)
As to B4, the Kd in data set [7] is 400 µM; in data set [8], 0.67 µM.

B5: LapD^output, wild-type (periplasmic output domain of LapD, residues 22-151) (domain or fragment, P. fluorescens Pf0-1, UniProt Q3KK31 22-151, looked up)
chain: SFMVSLESSRTQYVNQLRSHAQDAATALALSLTPNIDDPAMVELLVSSIFDSGYYSSIRVVDLKTDQTIVERNGIPAVTNVPDWFVKLIGLEPAGGDALVSRGWEQAARVEVVSHPMFALAKLWQSALGS
notes: LapD, P. fluorescens Pf0-1, residues 22-151 (periplasmic output domain); untagged in the pull-down; domain-swapped dimer in the crystal; The crystals were grown with selenomethionine-derivatized protein; the final model spans residues 23-150; also called periplasmic domain of LapD; source: produced following standard molecular biology and liquid chromatography techniques, purified (protocols in …)
With B5, in data set [9], the binding result is given as “binds”. Moreover, in the data set with His6-tagged LapG, the “stoichiometry N” value is 2 LapG molecules per output domain dimer.
